US20150098955A1 (VIELA BIO, published 2015)
Where a chain is given by its changes, count along the chain named. Where two headings read alike, the source gives them in different places.

T1: Murine CD40L (form not stated) (murine, UniProt P27548 112-260, limits assumed)
T1 construct: also called MuCD40L
T1 sequence (looked up): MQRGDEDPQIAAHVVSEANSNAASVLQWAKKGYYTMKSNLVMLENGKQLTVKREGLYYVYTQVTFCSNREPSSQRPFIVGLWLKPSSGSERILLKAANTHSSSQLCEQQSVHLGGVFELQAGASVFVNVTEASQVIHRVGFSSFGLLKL

T2: Human CD40L, membrane form, on cells (Jurkat D1.1 cells; activated primary human T cells) (human, UniProt P29965 1-261)
T2 sequence: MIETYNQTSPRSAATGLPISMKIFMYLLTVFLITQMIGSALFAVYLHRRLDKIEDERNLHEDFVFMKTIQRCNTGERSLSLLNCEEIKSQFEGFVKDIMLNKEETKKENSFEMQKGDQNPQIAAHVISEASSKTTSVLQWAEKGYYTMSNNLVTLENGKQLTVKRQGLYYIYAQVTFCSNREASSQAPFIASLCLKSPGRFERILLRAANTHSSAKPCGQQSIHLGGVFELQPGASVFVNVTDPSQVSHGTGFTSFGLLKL

T3: Recombinant human CD40L (Human MegaCD40L; Axxora) (human, UniProt P29965 47-261, biotinylated with EZ-Link sulfo-NHS-biotin where used in the plate binding assay)
T3 construct: extracellular domain; Bought construct (Axxora ALX522110): two trimeric CD40 ligands linked via the ACRP30 collagen domain; also called biotinylated Human MegaCD40L; Mega human CD40L; not shown: FLAG tag and collagen domain of ACRP30/adiponectin that links two CD40L trimers
T3 sequence (looked up): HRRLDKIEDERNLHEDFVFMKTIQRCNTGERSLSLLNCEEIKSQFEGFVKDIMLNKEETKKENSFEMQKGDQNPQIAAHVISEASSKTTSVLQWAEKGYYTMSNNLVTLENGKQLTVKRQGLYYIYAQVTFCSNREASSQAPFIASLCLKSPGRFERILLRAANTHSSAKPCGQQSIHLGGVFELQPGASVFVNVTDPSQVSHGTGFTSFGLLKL

B1: Clone M13 (murine CD40L-specific Tn3 scaffold) (designed binder)
chain: IEVKDVTDTTALITWHDAFGYDFGCELTYGIKDVPGDRTTIDLPDHFHNYSIGNLKPDTEYEVSLICANDHGFDSNPAKETFTT
notes: also called monovalent M13
B2: Clone M31 (affinity optimized variant of M13, murine CD40L-specific) (designed binder)
chain: B1 chain with A18P, F19S, G24W, N76Y
B3: 311-7GS bivalent tandem scaffold (designed binder)
chain: IEVKDVTDTTALITWTNRSSYYNLHGCELTYGIKDVPGDRTTIDLSSPYVHYSIGNLKPDTEYEVSLICLTTDGTYSNPAKETFTTGGGGSGGGGSGGGGSGGGGSGGGGSGGGGSGGGGSIEVKDVTDTTALITWTNRSSYYNLHGCELTYGIKDVPGDRTTIDLSSPYVHYSIGNLKPDTEYEVSLICLTTDGTYSNPAKETFTT
B4: Clone 309FGwt - Parental clone with 'humanized' FG loop (designed binder)
chain: AIEVKDVTDTTALITWSDEFGHYDGCELTYGIKDVPGDRTTIDLWWHSAWYSIGNLKPDTEYEVSLICRRGDMSSNPAKETFTTGGGTLGHHHHHHHH
B5: Clone 309 - Parental clone isolated from naive Tn3 library (designed binder)
chain: B4 chain with R69Y, R70T, G71D, D72Q, M73E, S74A, S75G
notes: Secreted His8-tagged form purified on Ni-NTA
B6: Clone 340 - Affinity Mature variant (designed binder)
chain: B4 chain with E19D, G21D, H22N, D24E, G25W, W46Y, S48M
notes: Secreted His8-tagged form
B7: Clone 341 - Affinity Mature variant (designed binder)
chain: B4 chain with E19D, G21A, H22D, D24V, G25W
B8: Clone 342 - Affinity Mature variant (w/WT FG loop) (designed binder)
chain: B4 chain with E19D, H22E, D24V, G25W, W46Y, S48H, W50H
notes: Secreted His8-tagged form
B9: Clone 343 - Affinity Mature variant (designed binder)
chain: B4 chain with S17L, E19D, F20W, H22S, D24H, G25V, W46Y, S48Q
notes: Secreted His8-tagged form
B10: Clone 344 - Affinity Mature variant (designed binder)
chain: B4 chain with F20V, H22D, D24V, G25V, W46Y, S48M
B11: Clone 345 - Affinity Mature variant (designed binder)
chain: B4 chain with E19D, G21A, H22E, D24V
notes: Secreted His8-tagged form
B12: Clone 346 - Affinity Mature variant (designed binder)
chain: B4 chain with E19D, G21E, H22E, D24V, G25V
notes: Secreted His8-tagged form
B13: Clone 347 - Affinity Mature variant (designed binder)
chain: B4 chain with F20V, H22Q, D24V, W46Y, S48M
notes: Secreted His8-tagged form
B14: Clone 348 - Affinity Mature variant (designed binder)
chain: B4 chain with E19D, F20I, H22L, D24V, G25W, W46F, S48Q
notes: Secreted His8-tagged form
B15: Clone 349 - Affinity Mature variant (designed binder)
chain: B4 chain with F20H, G21A, H22E, Y23F, D24I
notes: Secreted His8-tagged form
B16: 311 variant with the DE loop changed to the parent Tn3 DE loop sequence (designed binder)
chain: AIEVKDVTDTTALITWTNRSSYYNLHGCELTYGIKDVPGDRTTIDLTEDENQYSIGNLKPDTEYEVSLICLTTDGTYSNPAKETFTTGGGTLGHHHHHHHH
B17: Clone 311K4E - Variant from first round of affinity maturation (designed binder)
chain: B16 chain with K5E, T47S, E48S, D49P, E50Y, N51V, Q52H
notes: Secreted His8-tagged form
B18: Clone 311K4E_3 - Clone Variant from second round of affinity maturation (designed binder)
chain: AIEVEDVTDTTALITWINRSSYHNFPHCELAYGIKDVPGDRTTIDLNSPYVHYSIGNLKPDTEYEVSLICLTTDGTYSNPAKETFTTGGGTLGHHHHHHHH
notes: Secreted His8-tagged form
B19: Clone 311K4E_11 - Clone Variant from second round of affinity maturation (designed binder)
chain: B18 chain with I17T, H23A, F25L, H27G, A31T
notes: Secreted His8-tagged form
B20: Clone 311K4E_12 - Clone Variant from second round of affinity maturation (designed binder)
chain: B18 chain with I17T, H23S, F25L, P26H, H27G, S48Q, S78N
notes: Secreted His8-tagged form
B21: 311-3GS bivalent tandem scaffold (designed binder)
chain: IEVKDVTDTTALITWTNRSSYYNLHGCELTYGIKDVPGDRTTIDLSSPYVHYSIGNLKPDTEYEVSLICLTTDGTYSNPAKETFTTGGGGSGGGGSGGGGSIEVKDVTDTTALITWTNRSSYYNLHGCELTYGIKDVPGDRTTIDLSSPYVHYSIGNLKPDTEYEVSLICLTTDGTYSNPAKETFTT
B22: 309 variant with the BC loop changed to the parent Tn3 BC loop sequence (designed binder)
chain: AIEVKDVTDTTALITWFKPLAEIDGCELTYGIKDVPGDRTTIDLWWHSAWYSIGNLKPDTEYEVSLICYTDQEAGNPAKETFTTGGGTLGHHHHHHHH
B23: 309 variant with the DE loop changed to the parent Tn3 DE loop sequence (designed binder)
chain: AIEVKDVTDTTALITWSDEFGHYDGCELTYGIKDVPGDRTTIDLTEDENQYSIGNLKPDTEYEVSLICYTDQEAGNPAKETFTTGGGTLGHHHHHHHH
B24: 311 variant with the BC loop changed to the parent Tn3 BC loop sequence (designed binder)
chain: AIEVKDVTDTTALITWFKPLAEIDGCELTYGIKDVPGDRTTIDLSSPYVHYSIGNLKPDTEYEVSLICLTTDGTYSNPAKETFTTGGGTLGHHHHHHHH
B25: Clone 311K4E_15 - Clone Variant from second round of affinity maturation (designed binder)
chain: AIEVEDVTDTTALITWTNRSSYANYHHCELTYGIKDVPGDRTTIDLELYVHYSIGNLKPDTEYEVSLICLTTDGTYSNPAKETFTTGGGTLGHHHHHHHH
notes: Secreted His8-tagged form

Experiments:
[1] = target: Murine CD40L on cells (D10.G4 / D10G4.1 cells; activated murine T cells) (murine) (UniProt P27548); assay: cell-based or functional assay
[2] = target: Murine MegaCD40L (Axxora, cat. ALX522120) (murine) (UniProt P27548); assay: cell-based or functional assay
[3] = target: T1, Murine CD40L (form not stated); assay: biosensor competition: inhibition of murine CD40L binding to immobilized murine CD40 receptor
[4] = target: Murine CD40L on cells (D10.G4 / D10G4.1 cells; activated murine T cells) (murine) (UniProt P27548); assay: cell-based or functional assay; remark: listed apart in the source
[5] = target: Murine MegaCD40L (Axxora, cat. ALX522120) (murine) (UniProt P27548); assay: cell-based or functional assay; remark: listed apart in the source
[6] = target: T1, Murine CD40L (form not stated); assay: method not stated (figure legend)
[7] = target: Human CD40L, membrane form, on cells (Jurkat D1.1 cells; activated primary human T cells) (human) (UniProt P29965); assay: cell-based or functional assay
[8] = target: T2, Human CD40L, membrane form, on cells …; assay: cell-based or functional assay
[9] = target: T3, Recombinant human CD40L (Human …); assay: ProteOn XPR36 biosensor, human MegaCD40L immobilized on GLC chip, Tn3 as analyte, equilibrium analysis, 25 C
Protocol: ProteOn phosphate buffered saline with 0.005% Tween 20, pH 7.4 (PBS/Tween) was used as running buffer. Human MegaCD40L was immobilized on the chip at a surface density of approximately 2300 RU. […] Samples of each concentration were injected into the six analyte channels at a flow rate of 30 μl/min. for 300 seconds. The Kd was determined by using the equilibrium analysis setting within the ProteOn software.

[10] = target: T3, Recombinant human CD40L (Human …); assay: cell-based or functional assay
[11] = target: T3, Recombinant human CD40L (Human …); assay: capture ELISA: His-tagged Tn3 captured on anti-His antibody, biotinylated Human MegaCD40L detected with SA-HRP
[12] = target: T2, Human CD40L, membrane form, on cells …; assay: cell-based or functional assay; remark: listed apart in the source
[13] = target: T3, Recombinant human CD40L (Human …); assay: ProteOn XPR36 biosensor, human MegaCD40L immobilized on GLC chip, purified Tn3 as analyte
Protocol: Outputs were pool cloned into the soluble secretion vector as previously described, and five 96-well plates were screened for CD40L binding using the soluble protein screening assay described previously. Positive hits were identified relative to the signal obtained with the 311K4E backbone variant. […] PBS, 0.005% Tween20, 3 mM EDTA, pH7.4 was used as running buffer. Off-rates were ranked by visual inspection of the sensorgrams.

Row | Molecule | PBMC IC50 [8] | Kd [9] | other results
1 | MR1 anti-murine CD40L monoclonal antibody |  |  | IC50, inhibition of CD86 up regulation on CD19+ B cells (PBMC stimulated with D10.G4 cells) [1]: 0.23 nM; IC50, inhibition of CD40L-induced NFκB activity [2]: 0.2 nM
2 | B1 |  |  | IC50 [3]: 71 nM
3 | B2 |  |  | IC50, inhibition of CD86 up regulation on CD19+ B cells (PBMC stimulated with D10.G4 cells) [4]: 1.5 nM; fold increase in potency in the PBMC assay over M13 [4]: 20 fold; IC50, neutralization of murine CD40L-induced NFκB activity (luciferase reporter cells) [5]: 1.6 nM; fold affinity improvement over M13 [6]: ~20 fold
4 | B3 |  |  | fold improvement over monovalent 311, inhibition of human CD40L-induced expression on CD19 positive human PBMCs [7]: 7 fold
5 | B4 | 760 nM |  | 
6 | B5 | 226 nM | 191 nM | 
7 | B6 | 0.7 nM | 2.2 nM | 
8 | B7 | 0.7 nM |  | 
9 | B8 | 0.7 nM | 1.4 nM | IC50, inhibition of human CD40L-induced NFκB activity (luciferase reporter HEK293 cells) [10]: 1.5 nM
10 | B9 | 0.6 nM | 2 nM | 
11 | B10 | 1.3 nM |  | 
12 | B11 | 37.3 nM | 39 nM | 
13 | B12 | 9 nM | 14.9 nM | 
14 | B13 | 11 nM | 10.7 nM | 
15 | B14 | 1 nM | 1.8 nM | 
16 | B15 | 38.2 nM | 21 nM | 
17 | B16 |  |  | binding result [11]: no binding
18 | B17 |  |  | fold increase in potency over 311 in the PBMC assay [12]: ~100 fold; Kd [13]: 18 nM
19 | B18 |  |  | Kd [13]: 6.4 nM
20 | B19 |  |  | Kd [13]: 6.3 nM
21 | B20 |  |  | fold increase in potency in the PBMC assay relative to 311K4E [12]: 12 fold; Kd [13]: 1.1 nM
22 | B21 |  |  | fold improvement over monovalent 311, inhibition of human CD40L-induced expression on CD19 positive human PBMCs [12]: ~7 fold
23 | B22 |  |  | binding result [11]: no binding
24 | B23 |  |  | binding result [11]: no binding
25 | B24 |  |  | binding result [11]: no binding
26 | B25 |  |  | Kd [13]: 1.6 nM
